Assay results from patent publication US20170226211A1 (AGENCY OR SCIENCE TECHNOLOGY AND RESEARCH, published 2017).

What was measured:
[1] = target: T1, human CTLA-4 (human, UniProt P16410 36-161, limits assumed); assay: cell-based or functional assay
[2] = target: T2, mouse CTLA-4 (mouse, UniProt P09793 36-161, limits assumed); assay: avidity ELISA, mouse CTLA-4 coated, antibody titrated
T2 construct: construct not described; also called murine CTLA-4; the mouse protein
Description: (§1) The response curve was plotted (see FIG. 10), and EC50 was calculated.

[3] = target: T2, mouse CTLA-4; assay: affinity ELISA, antibody coated, mouse CTLA-4 titrated; 2C8 IgG1 with LALA mutation (L234A, L235A)
Text: (§2) The “LALA” mutation refers to mutation of leucine residues at positions 234 and […] of the of the Fc region to alanine (i.e. L234A, L235A); this mutation is known to weaken interaction between Fc and Fc-γR, and therefore to prevent ADCC activity (see e.g. Hezareh et al., J Virol (2001) 75(24):12161-12168).

[4] = target: T3, Human CD28 conjugated to human Fc (human, UniProt P10747 19-152); assay: ELISA, human CD28-human Fc coated, antibody titrated
T3 construct: not shown: human Fc

[5] = target: T1, human CTLA-4; assay: avidity ELISA, human CTLA-4 coated, antibody titrated
Description: as §1

[6] = target: T1, human CTLA-4; assay: affinity ELISA, antibody coated, human CTLA-4 titrated
[7] = target: T1, human CTLA-4; assay: SPR, antibody immobilised on chip, human CTLA-4 flowed over
[8] = target: T2, mouse CTLA-4; assay: affinity ELISA, antibody coated, mouse CTLA-4 titrated; 2C8 IgG1
Text: as §2

[9] = target: T4, Cynomolgus/Rhesus CTLA-4 (cynomolgus/rhesus); assay: ELISA, antibody coated, Cynomolgus/Rhesus CTLA-4 titrated
T4 construct: Printed as one protein 'Cynomolgus/Rhesus CTLA-4'

[10] = target: T5, human CTLA-4 expressed on HEK-293.6E cells (human, UniProt P16410 36-223); assay: flow cytometry on HEK-293.6E cells transfected with human CTLA-4
T5 construct: whole, on cells; also called cell surface-expressed human CTLA-4

[11] = target: T6, mouse CTLA-4 expressed on HEK-293.6E cells (mouse, UniProt P09793 36-223); assay: flow cytometry on HEK-293.6E cells transfected with mouse CTLA-4
T6 construct: whole, on cells; also called cell surface-expressed mouse CTLA-4

[12] = target: T2, mouse CTLA-4; assay: affinity ELISA, antibody coated, mouse CTLA-4 titrated; 2C8_gI IgG1
Text: as §2

[13] = target: T1, human CTLA-4; assay: ELISA, human CTLA-4 coated, Fab titrated
[14] = target: T3, Human CD28 conjugated to human Fc; assay: ELISA, human CD28-Fc coated, antibody titrated
[15] = target: T1, human CTLA-4; assay: blocking ELISA: antibody pre-incubated with human CTLA-4, binding of CTLA-4 to coated CD80 detected
[16] = target: T2, mouse CTLA-4; assay: affinity ELISA, antibody coated, mouse CTLA-4 titrated; 2C8 IgG4
Text: as §2

T1 sequence (P16410 36-161 limits assumed): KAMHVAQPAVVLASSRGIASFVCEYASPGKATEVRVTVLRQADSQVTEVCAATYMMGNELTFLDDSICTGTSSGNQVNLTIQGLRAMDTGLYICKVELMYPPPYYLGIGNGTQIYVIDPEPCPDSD
T5 sequence (P16410 36-223): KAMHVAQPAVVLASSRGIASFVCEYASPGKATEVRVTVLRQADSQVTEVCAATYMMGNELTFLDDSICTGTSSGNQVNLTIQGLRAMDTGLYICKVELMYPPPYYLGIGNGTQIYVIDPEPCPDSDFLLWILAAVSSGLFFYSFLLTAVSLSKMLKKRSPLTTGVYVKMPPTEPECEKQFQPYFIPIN

B1: 2C8 IgG1 with LALA mutation (antibody, V domains shown)
VH: QVQLQQSGPGLVKPSQTLSLTCAISGDTVSSNTAAWNWIRQSPSRGLEWLGRTYYRSKWYSDYGLSVKSRMTINADTSKNQVSLHLNSVTPEDTAVYYCAREGSGGTLIYWGQGTLVTVSS
VL: DIQLTQSPSSVSASVGDRVTITCRATQGISSWLAWYQQKPGKAPKLLIYAASSLQSGVPSRFSGSGSGTEFTLTISSLQPEDFATYYCQQANTLPLFTFGPGTKVDIK
notes: also called 2C8 with LALA mutation; 2C8 with the mutation
- EC50, T cell reactivation assay (IL-2 secretion by Jurkat T cells) [1]: 0.7 to 1.2 nM
- EC50 [2]: 8 nM
- EC50 [3]: 5.1 nM

B2: anti-CTLA-4 antibody clone 2C8, human IgG1 (antibody, V domains shown)
VH: QVQLQQSGPGLVKPSQTLSLTCAISGDTVSSNTAAWNWIRQSPSRGLEWLGRTYYRSKWYSDYGLSVKSRMTINADTSKNQVSLHLNSVTPEDTAVYYCAREGSGGTLIYWGQGTLVTVSS
VL: DIQLTQSPSSVSASVGDRVTITCRATQGISSWLAWYQQKPGKAPKLLIYAASSLQSGVPSRFSGSGSGTEFTLTISSLQPEDFATYYCQQANTLPLFTFGPGTKVDIK
notes: also called 2C8 IgG; 2C8 IgG1
- binding result [4]: no binding
- EC50 [5]: 0.0636 nM
- EC50 [2]: 4.9 nM
- EC50 [6]: 5 nM
- Kd [7]: 9.6 nM
- EC50 [8]: 9.6 nM
- EC50 (read off the curve) [9]: ~0.3 nM
- EC50 (read off the curve) [10]: ~4 nM
- EC50 (read off the curve) [11]: ~6 nM

B3: anti-CTLA-4 antibody clone 2C8_gI, IgG1 (antibody, V domains shown)
VH: QVQLQQSGPGLVKPSQTLSLTCAISGDSVSSNTAAWNWIRQSPSRGLEWLGRTYYRSKWYSDYGLSVKSRITINPDTSKNQFSLQLNSVTPEDTAVYYCAREGSGGTLIYWGQGTLVTVSS
VL: DIQMTQSPSSVSASVGDRVTITCRATQGISSWLAWYQQKPGKAPKLLIYAASSLQSGVPSRFSGSGSGTDFTLTISSLQPEDFATYYCQQANTLPLFTFGPGTKVDIK
notes: IgG1; also called germline version of the antibody
- EC50 [2]: 77.1 nM
- EC50 [12]: 23.5 nM

B4: anti-CTLA-4 antibody clone 2C8, Fab (Fab, V domains shown)
VH: QVQLQQSGPGLVKPSQTLSLTCAISGDTVSSNTAAWNWIRQSPSRGLEWLGRTYYRSKWYSDYGLSVKSRMTINADTSKNQVSLHLNSVTPEDTAVYYCAREGSGGTLIYWGQGTLVTVSS
VL: DIQLTQSPSSVSASVGDRVTITCRATQGISSWLAWYQQKPGKAPKLLIYAASSLQSGVPSRFSGSGSGTEFTLTISSLQPEDFATYYCQQANTLPLFTFGPGTKVDIK
notes: Fab from a human antibody phage display library
- EC50 (read off the curve) [13]: ~1 nM
- binding result [14]: no binding (tested: 1000 nM)
- IC50 (read off the curve) [15]: ~5 nM

B5: L3D10 (commercial mouse anti-human CTLA-4 IgG1) (antibody, V domains shown)
VH: QVQLKESGPGLVAPSQSLSITCTVSGFSLTSYGLSWVRQPPGKGLEWLGVIWYDGNTNFHSALISRLTISKDNSKSQVFLELNSLQTDDTATYYCAKTEGHYYGSNYGYYALDYWGQGTSVTVSS
VL: DIQMTQSPASLSVSVGETVTITCRASENIYSNLAWYQQKQGKSPQLLVYAATNLADGVPSRFSGSGSGTQYSLKINSLQSEDFGTYFCQHLWGTPYTFGGGTKLEIK
- IC50 (read off the curve) [15]: ~1 nM

B6: 2C8 IgG4 (antibody, V domains shown)
VH: QVQLQQSGPGLVKPSQTLSLTCAISGDTVSSNTAAWNWIRQSPSRGLEWLGRTYYRSKWYSDYGLSVKSRMTINADTSKNQVSLHLNSVTPEDTAVYYCAREGSGGTLIYWGQGTLVTVSS
VL: DIQLTQSPSSVSASVGDRVTITCRATQGISSWLAWYQQKPGKAPKLLIYAASSLQSGVPSRFSGSGSGTEFTLTISSLQPEDFATYYCQQANTLPLFTFGPGTKVDIK
notes: IgG4 format; also called IgG4 version of 2C8
- EC50 [2]: 20.9 nM
- EC50 [16]: 7 nM
